# In publication PMC12345224:
# Key:
# Experiment in all cases: bacterial two-hybrid (β-galactosidase activity)
# Settings in all cases: in vivo, E. coli BTH101; T18 and T25 fusions; parent: est. 1400; read off a plot
# FleN^A139V = biological target: FleN^A139V
# FleN^L260R = biological target: FleN^L260R
# FleN^R218C = biological target: FleN^R218C
# FleN^V24L = biological target: FleN^V24L
substance,measurement,setting,value
wild-type FleN A139V,response (Miller unites),FleN^A139V,870
wild-type FleN L260R,response (Miller unites),FleN^L260R,1000
wild-type FleN R218C,response (Miller unites),FleN^R218C,1200
wild-type FleN V24L,response (Miller unites),FleN^V24L,130
